No end group written: not given here.

Our source for the peptide exchange yield values is patent US20190153066A1 (IMMATICS BIOTECHNOLOGIES, published 2019).

The target in this test is T1, HLA-A*02:01 (peptide-receptive MHC class I molecule after UV-ligand exchange) (human).
T1 construct: monomers captured on streptavidin-coated plates; also called peptide-receptive MHC molecules; MHC monomers
Kind of test: UV-ligand exchange, anti-b2m ELISA; peptide exchange yield grade (>10% = +; >20% = ++; >50 = +++; >75% = ++++). The text has this: Candidate peptides for T cell based therapies according to the present invention were further tested for their MHC binding capacity (affinity). The individual peptide-MHC complexes were produced by UV-ligand exchange, where a UV-sensitive peptide is cleaved upon UV-irradiation, and exchanged with the peptide of interest as analyzed. Only peptide candidates that can effectively bind and stabilize the peptide-receptive MHC molecules prevent dissociation of the MHC complexes. To determine the yield of the exchange reaction, an ELISA was performed based on the detection of the light chain (β2m) of stabilized MHC complexes. The assay was performed as generally described in Rodenko et al. (Rodenko et al., 2006).
96 well MAXISorp plates (NUNC) were coated over night with 2 ug/ml streptavidin in PBS at room temperature, washed 4× and blocked for1 h at 37° C. in 2% BSA containing blocking buffer. Refolded HLA-A*02:01/MLA-001 monomers served as standards, covering the range of 15-500 ng/ml. Peptide-MHC monomers of the UV-exchange reaction were diluted 100-fold in blocking buffer. Samples were incubated for 1 h at 37° C., washed four times, incubated with 2 ug/ml HRP conjugated anti-β2 m for 1 h at 37° C., washed again and detected with TMB solution that is stopped with […]. Absorption was measured at 450 nm. Candidate peptides that show a high exchange yield (preferably higher than 50%, most preferred higher than 75%) are generally preferred for a generation and production of antibodies or fragments thereof, and/or T cell receptors or fragments thereof, as they show sufficient avidity to the MHC molecules and prevent dissociation of the MHC complexes.
For VLPRAFTYV [peptide VLPRAFTYV (SEQ ID NO: 13)], the peptide exchange yield is above 75%.

The molecule LLLPLLPPLSPS (also: trifluoroacetate salt) [peptide LLLPLLPPLSPS (SEQ ID NO: 6)] displayed a peptide exchange yield above 75%.

Regarding YVISQVFEI [peptide YVISQVFEI (SEQ ID NO: 32)], the peptide exchange yield is above 75%.

Consider SLLSELLGV [peptide SLLSELLGV (SEQ ID NO: 23)], for which the peptide exchange yield was above 75%.

The molecule SLSPDLSQV [peptide SLSPDLSQV (SEQ ID NO: 18)] had a peptide exchange yield of 50 to 75%.

In turn, TAYPQVVVV [peptide TAYPQVVVV (SEQ ID NO: 19)] returned a peptide exchange yield of 20 to 50%.

For SAFPFPVTVSL [peptide SAFPFPVTVSL (SEQ ID NO: 10)], the peptide exchange yield was 20 to 50%.

For AVMTDLPVI [peptide AVMTDLPVI (SEQ ID NO: 16)], the peptide exchange yield was above 75%.

Consider SIIDFTVTM [peptide SIIDFTVTM (SEQ ID NO: 11)], for which the peptide exchange yield is above 75%.

Consider SAFGFPVIL [peptide SAFGFPVIL (SEQ ID NO: 22)], for which the peptide exchange yield is 20 to 50%.

In turn, SVIDSLPEI [peptide SVIDSLPEI (SEQ ID NO: 15)] showed a peptide exchange yield above 75%.

In the case of VLYDNTQLQL [peptide VLYDNTQLQL (SEQ ID NO: 17)], the peptide exchange yield was above 75%.

Molecule RLAKLTAAV [peptide RLAKLTAAV (SEQ ID NO: 9)] gave a peptide exchange yield above 75%.

Turning to IAFPTSISV [peptide IAFPTSISV (SEQ ID NO: 21)], the peptide exchange yield lay within 50 to 75%.

Turning to TILPGNLQSW [peptide TILPGNLQSW (SEQ ID NO: 12)], the peptide exchange yield fell in the range of 10 to 20%.

In turn, ISAPLVKTL [peptide ISAPLVKTL (SEQ ID NO: 24)] came in with a peptide exchange yield of 10 to 20%.

Consider ALAEQVQKA [peptide ALAEQVQKA (SEQ ID NO: 27)], for which the peptide exchange yield was in the range of 50 to 75%.

In turn, NLSETASTMAL [peptide NLSETASTMAL (SEQ ID NO: 25)] showed a peptide exchange yield above 75%.

EMDSTVITV [peptide EMDSTVITV (SEQ ID NO: 3)] had a peptide exchange yield of 50 to 75%.

Regarding YASGSSASL [peptide YASGSSASL (SEQ ID NO: 28)], the peptide exchange yield lay within 10 to 20%.

TAQTLVRIL [peptide TAQTLVRIL (SEQ ID NO: 26)] registered a peptide exchange yield of 10 to 20%.

YAAEIASAL (also: trifluoroacetate salt) [peptide YAAEIASAL (SEQ ID NO: 1)] registered a peptide exchange yield of 50 to 75%.

Consider LSASLVRIL [peptide LSASLVRIL (SEQ ID NO: 8)], for which the peptide exchange yield lay within 10 to 20%.

With VLQDELPQL [peptide VLQDELPQL (SEQ ID NO: 20)], the peptide exchange yield was above 75%.

FLLEAQNYL [peptide FLLEAQNYL (SEQ ID NO: 4)]: the peptide exchange yield is above 75%.

Consider GLIDEVMVLL [peptide GLIDEVMVLL (SEQ ID NO: 5)], for which the peptide exchange yield is above 75%.

In turn, AAYPEIVAV [peptide AAYPEIVAV (SEQ ID NO: 2)] gave a peptide exchange yield of 50 to 75%.

Turning to LLLSDPDKVTI [peptide LLLSDPDKVTI (SEQ ID NO: 7)], the peptide exchange yield is above 75%.

With FASGLIHRV [peptide FASGLIHRV (SEQ ID NO: 30)], the peptide exchange yield was 50 to 75%.

FASEVSNVL [peptide FASEVSNVL (SEQ ID NO: 29)] yielded a peptide exchange yield above 75%.

YGIEFVVGV [peptide YGIEFVVGV (SEQ ID NO: 14)] registered a peptide exchange yield above 75%.

As to IAIPFLIKL [peptide IAIPFLIKL (SEQ ID NO: 31)], the peptide exchange yield is above 75%.
